T1: Biotinylated CD96 antigen (human, UniProt P40200-2 22-503, limits assumed, biotinylated)
T1 sequence (looked up): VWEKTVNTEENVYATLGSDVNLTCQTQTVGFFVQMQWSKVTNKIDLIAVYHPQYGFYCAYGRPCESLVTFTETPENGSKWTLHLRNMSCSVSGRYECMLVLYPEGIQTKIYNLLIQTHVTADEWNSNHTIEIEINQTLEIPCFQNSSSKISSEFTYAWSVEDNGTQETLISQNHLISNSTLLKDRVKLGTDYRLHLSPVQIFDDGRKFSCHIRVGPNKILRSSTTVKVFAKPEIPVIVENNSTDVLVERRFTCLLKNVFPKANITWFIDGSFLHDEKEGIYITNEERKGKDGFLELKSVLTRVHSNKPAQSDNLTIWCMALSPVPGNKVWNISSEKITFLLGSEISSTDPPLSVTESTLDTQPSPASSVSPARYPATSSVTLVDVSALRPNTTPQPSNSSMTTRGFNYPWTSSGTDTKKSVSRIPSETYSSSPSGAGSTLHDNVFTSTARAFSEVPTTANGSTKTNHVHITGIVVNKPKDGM

T2: CD96 epitope peptide #19 (280-299) (human)
T2 peptide: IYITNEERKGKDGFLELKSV


Legend:
[1] = target: T1, Biotinylated CD96 antigen; assay: competition ELISA: antibody B pre-incubated with biotinylated CD96 antigen, added to a plate coated with antibody A, HRP-streptavidin, OD450; competitor: coated h1719-014 (named by the legend paragraph 84)
Protocol: (§1) Competitive assays of different antibodies binding to CD96 protein were used to classify binding epitopes of the antibodies. The specific experimental methods are as follows:
(§2) Antibody A was diluted to a concentration of 2 μg/ml with PBS buffer (Shanghai Yuanpei Biotechnology Co., Ltd. Cat No. B320), pH 7.4, added to a 96-well microtiter plate (Corning, Cat No. CLS3590-100EA) at a volume of 50 μl/well, and coated at 4° C. overnight. After discarding the liquid, 250 μl/well of 5% skim milk (BD skim milk, Cat No. 232100) blocking solution diluted with PBS was added, and the plate was incubated at 37° C. for 3 hours. After blocking, the blocking solution was discarded, and the plate was washed 5 times with PBST buffer (pH 7.4 PBS containing 0.05% tween-20) and stored for later use. Antibody B was diluted to 40 μg/ml and 8 μg/ml with 1% BSA, and Biotinylated CD96 antigen was simultaneously diluted to 4 μg/mL. Subsequently, antibody B and antigen were mixed in a 1:1 volume ratio, pre-incubated at 37° C. for 45 minutes, added into the enzyme plate coated with antibody A, thus incubating the plate in an incubator at 37° C. for 1.5 hours. After incubation, the plate was washed for 5 times with PBST, and 50 μl/well of HRP-labeled streptavidin (Sigma, Cat No. 52438) diluted with sample dilution was added, followed by incubating the plate at 37° C. for 1 hour. After washing the plate 5 times with PBST, 50 μl/well of TMB chromogenic substrate (KPL, Cat No. 52-00-03) was added for color development, followed by adding 50 μl/well of 1M H₂SO₄ to stop the reaction. The absorption value was read at 450 nm with a NOVOStar microplate reader, and the OD value was used to determine whether A and B CD96 antibodies compete with each other. Antibodies that compete with each other fall into the same class of antibodies, otherwise belong to different classes of antibodies (see FIG. 3 and Table 18).

[2] = target: T2, CD96 epitope peptide #19 (280-299); assay: peptide ELISA ('-' indicates no binding, table note)
Protocol: The epitopes recognized by anti-CD96 antibody were detected by the assay of binding the antibody to different polypeptide fragments of CD96 protein. The fragments of different polypeptides of the CD96 antigen were coated on the microtiter plate. The signal density after the antibody was added was used to judge the binding activity of the antibody and the polypeptide. The specific experimental method is as follows:
The polypeptides were diluted to a concentration of 20 μg/ml with PBS buffer (Shanghai Yuanpei Biotechnology Co., Ltd. Cat No. B320), pH 7.4, added to a 96-well microtiter plate (Corning, Cat No. CLS3590-100EA) at a volume of 50 μl/well, and coated at 4° C. overnight. After discarding the liquid, 250 μl/well of 5% skim milk (BD skim milk, Cat No. 232100) blocking solution diluted with PBS was added, and the plate was incubated in an incubator at 37° C. for 3 hours. After blocking, the blocking solution was discarded, and the plate was washed 5 times with PBST buffer (pH 7.4 PBS containing 0.05% tween-20). 50 μl/well of different concentrations of the antibodies to be tested (hybridoma purification antibody or humanized antibody) diluted with sample dilution was added, and the plate was incubated in an incubator at 37° C. for 2 hours. […] After washing the plate 5 times with PBST, 50 μl/well of TMB chromogenic substrate (KPL, Cat No. 52-00-03) was added, the plate was incubated at room temperature for 5-15 min, followed by adding 50 μl/well of 1M H₂SO₄ to stop the reaction. The absorption value was read at 450 nm with a microplate reader (Thermo Scientific MuLtiskan MK3), and the epitopes that CD96 antibody can recognize were analyzed.

[3] = target: T1, Biotinylated CD96 antigen; assay: competition ELISA, antibody B premixed with biotinylated CD96; competitor (coated antibody A): h1721-003
Protocol: as §1, §2

Row | Binder | IC50 (read off the curve) [1] [nM] | binding result [2] | competition (percent) [3] [%]
1 | ch1720 (antibody, human IgG4 S228P, kappa, V domains shown, also called chimeric antibody corresponding to m1720) VH: EFQLQQSGPELVKPGASVKISCKASAYSLTDYNMNWVKQSNGKSLEWIGVINPSYGISSYNQKFKGKATLTVDQSSSTAYMHLNSLTSEDSAVYYCARQLRLPGYFDVWGTGTTVTVSS VL: DIKMTQSPSSKNASLGERVTITCKASQDINSYLNWFQQKPGKSPKTLIYRASRLVDGVPSRFSGSGSGQDYSLTISSLEYEDMGIYYCLKYDEFPYTFGGGTKLEIKR | ~1 | no binding | 98.7
2 | ch1719 (antibody, human IgG4 S228P, kappa, V domains shown, also called chimeric antibody corresponding to m1719) VH: QVQLKESGPGLVAPSQSLSITCTVSGFSLISYGVSWVRQPPGKGLEWLGVIWGDGNTNYHSVLISRLSIRKDDSKSQVFLKLNSLQTDDTATYYCAKNNYYGSRYGYPMDYWGQGTSVTVSS VL: DIVMTQSHKFMSTSVGDRVSITCKATQDVGTAVAWYQQKPGHSPKLLIYWASTRHTGVPERFTGSGSGTDFTLTIDNVQSEDLADYFCQQYGSSVLTFGAGTKVELRR |  | no binding | 
3 | ch1721 (antibody, human IgG4 S228P, kappa, V domains shown, also called chimeric antibody corresponding to m1721) VH: QVQLKESGPGLVAPSQSLSITCTVSGFSLISYGVNWVRQPPGKGLEWLGVIWGDGSTNYHSALISRLSISKDDSKSQVFLNLNSLQTDDTATYYCAKNYFYGSRYGYAMDSWGQGISVTVSS VL: DIQMTQSPASLSAAVGETVTITCRASENIYSSLAWYQQKQGKSPQLLVYNAKTLIETVASRFSGSGSGTQYSLKINSLQPEDFGSFYCQHHYGTPYTFGGGTKLEIKR |  | no binding | 
4 | h1719-014 (antibody, V domains shown, Only variable regions are tied to this name; also called M719-014) VH: EVTLKESGPVLVKPTETLTLTCTVSGFSLSSYGVSWVRQPPGKGLEWLGVIWGDGNTNYHSVLISRLTISKDTSKSQVVLTLTNMDPVDTATYYCAKNYYYGSRYGYPLDYWGQGTTVTVSS VL: DIQMTQSPSSVSASVGDRVTITCKATQDVGTAVAWYQQKPGKSPKLLIYWASTRHTGVPERFSGSGSGTDFTLTISSLQPEDFATYFCQQYGSSVLTFGGGTKVEIK |  |  | 84.6
5 | h1718-012 (antibody, V domains shown, Only variable regions are tied to this name) VH: EVQLVQSGAEVKKPGASVKVSCKASGYTITDYNMNWVRQAPGQRLEWIGVINPSYGITDYNQNFKDRVTITVDTSASTAYMELSSLRSEDTAVYYCAIQLRLPGYFDVWGQGTTVTVSS VL: DIQMTQSPSSLSASVGDRVTITCKASQDINQYLNWFQQKPGKAPKTLIYRANRLVDGVPSRFSGSGSGQDYTLTISSLQPEDFATYYCLKYDEFPYTFGGGTKVEIK | ~0.4 |  | 103
6 | h1722-010 (antibody, V domains shown, Only variable regions are tied to this name; also called M722-010) VH: EVQLVQSGAEVKKPGSSVKVSCKASGGTFSDYWMHWVRQAPGQGLEWIGMLHPNSGTTSFNEKFKIRVTITADKSTSTAYMELSSLRSEDTAVYYCASDYSGPFAYWGQGTLVTVSS VL: DIQLTQSPSSLSASVGDRVTITCSASSSVNYIHWYQQKPGKAPKRWIFDTSKLASGVPSRFSGSGSGTDYTLTISSLQPEDFATYYCQQWRSNPLTFGQGTKLEIK |  |  | -8.5

Next, values leading:

Row | IC50 (read off the curve) [1] [nM] | binding result [2] | competition (percent) [3] [%] | Binder
7 | ~0.4 |  | 100 | h1721-003 (antibody, V domains shown, Only variable regions are tied to this name; also called M721-003) VH: EVTLKESGPVLVKPTETLTLTCTVSGFSLSSYGVNWIRQPPGKALEWLGVIWGDGSTNYHSALISRLTISKDTSKSQVVLTLTNMDPVDTATYYCAKNYFYGSRYGYAMDSWGQGTTVTVSS VL: DIQMTQSPSSLSASVGDRVTITCRASENIYSSLAWYQQKPGKAPKLLIYNAKTLIEGVPSRFSGSGSGTDFTLTISSLQPEDFATYYCQHHYGTPYTFGGGTKVEIK
8 | ~0.4 |  |  | h1719-010 (antibody, V domains shown, Only variable regions are tied to this name) VH: EVTLKESGPVLVKPTETLTLTCTVSGFSLSSYGVSWVRQPPGKGLEWLGVIWGDGNTNYHSVLISRLTISKDTSKSQVVLTLTNMDPVDTATYYCAKQNYYGSRYGYPIDYWGQGTTVTVSS VL: DIQMTQSPSSVSASVGDRVTITCKATQDVGTAVAWYQQKPGKAPKLLIYWASTRHTGVPSRFSGSGSGTDFTLTISSLQPEDFATYYCQQYGSSVLTFGGGTKVEIK

Reference: US20200347130A1 (JIANGSU HENGRUI MEDICINE, published 2020)
